Measured values: paper PMC5818423

B1: Human wild-type adenosine deaminase (ADA) [human] / A2AR-Nluc-spacer (human adenosine receptor fused to NanoLuc on the N-terminal end, with spacer) [human] (parent)
chain 1: MAQTPAFDKPKVELHVHLDGSIKPETILYYGRRRGIALPANTAEGLLNVIGMDKPLTLPDFLAKFDYYMPAIAGCREAIKRIAYEFVEMKAKEGVVYVEVRYSPHLLANSKVEPIPWNQAEGDLTPDEVVALVGQGLQEGERDFGVKARSILCCMRHQPNWSPKVVELCKKYQQQTVVAIDLAGDETIPGSSLLPGHVQAYQEAVKSGIHRTVHAGEVGSAEVVKEAVDILKTERLGHGYHTLEDQALYNRLRQENMHFEICPWSSYLTGAWKPDTEHAVIRLKNDQANYSLNTDDPLIFKSTLDTDYQMTKRDMGFTEEEFKRLNINAAKSSFLPEDEKRELLDLLYKAYGMPPSASAGQNL
chain 2: MPIMGSSVYITVELAIAVLAILGNVLVCWAVWLNSNLQNVTNYFVVSLAAADIAVGVLAIPFAITISTGFCAACHGCLFIACFVLVLTQSSIFSLLAIAIDRYIAIRIPLRYNGLVTGTRAKGIIAICWVLSFAIGLTPMLGWNNCGQPKEGKNHSQGCGEGQVACLFEDVVPMNYMVYFNFFACVLVPLLLMLGVYLRIFLAARRQLKQMESQPLPGERARSTLQKEVHAAKSLAIIVGLFALCWLPLHIINCFTFFCPDCSHAPLWLMYLAIVLSHTNSVVNPFIYAYRIREFRQTFRKIIRSHVLRQQEPFKAAGTSARVLAAHGSDGEQVSLRLNGHPPGVWANGSAPHPERRPNGYALGLVSGGSAQESQGNTGLPDVELLSHELKGVCPEPPGLDDPLAQDGAGVS

Variants of: B1
Test: NanoBRET between mixed cells (A2AR-Nluc-spacer cells + CD26-YFP cells bridged by ADA)
Conditions: ADA at 1 μg/ml, 10 min incubation in HBSS without shaking, HEK-293T cells, untreated (0) control est. 4.6 mBU, parent: 35, read off a plot

Row | response [mBU] | Variant
1 | 7.3 | chain 1 L58A
2 | 6.7 | chain 1 L62A
